This passage reports Kd results from paper PMC2689706.

The assay addresses bacterially expressed GST-tagged eRF3 (UniProt P15170). The experiment in a line: not stated; unpublished data; bacterially expressed GST-tagged eRF3 with partner translated in rabbit reticulocyte lysate.

As for “rabbit reticulocyte-lysate-translated PABPC1 (from UniProt P11940 1-636) (natural protein)”, the Kd (in general, the equilibrium constant for the complex coming apart) turned out to be 5 nM. In other words, the single-digit nanomolar range. The same measure for “rabbit reticulocyte-lysate-translated hUpf1 (from UniProt Q92900 1-1129) (natural protein)”: > 1000 nM.
